The values below come from paper PMC10190533, “Engineering Escherichia coli to Utilize Erythritol as Sole Carbon Source” (Advanced Science, 2022).

This data set deals with the molecule itself. In words: SEC + native gel or EMSA. (In general: Mobility shift assays separate free from complexed probe on a gel.)

B1: eryD, erythritol-binding transcriptional repressor from Ochrobactrum spp. (natural protein)
chain: MADADDSLALRAAWLHFVAGMTQSAVAKRLGLPSVKAHRLIAKAVADGAVKVTIDGDITECIDLENRLADLYGLDYCEVAPDIGEEGLPLMALGHAGANFMRREIEHGDHEVIGIGHGRTLSAAVGYMPRVMANDLRFVSLLGGLTRNFAANPHDVMHRIAEKTGMPAYVMPVPFFANTAEDREVLLAQRGVTTVFDMGCRAELKIVGIGTVDAQAQLVTSGMIELGEVEEIANLGGVGEMLGHFFNANGQWLETALTGRTIAASVENADMSRIVALAGGLSKVDAIRAVLKSGRLYGLITDERTAKALIGQPNGK
notes: also called erythritol-responding genetic repressor eryD
Broadly, the stoichiometry N is the number of molecules, sites or subunits per partner or assembly. On to B1, for which the “stoichiometry N” value came out at 4.
